According to paper PMC8666670, “Malonyl-acyl carrier protein decarboxylase activity promotes fatty acid and cell envelope biosynthesis in Proteobacteria” (The Journal of Biological Chemistry, 2021):

Columns and labels:
[1] = target: MadB(N43A) (S. oneidensis); test: not stated; dimeric structures of the MadB catalytic loop mutants, data in Table S3
[2] = target: MadB(H47A) (S. oneidensis); test: as above
[3] = target: MadB(D79A) (S. oneidensis); test: as above
[4] = target: MadB(N45A) (S. oneidensis); test: as above
[5] = target: MadB(S54A) (S. oneidensis); test: as above
[6] = target: MadB(T49A) (S. oneidensis); test: as above
[7] = target: MadB, standalone hot dog malonyl-ACP decarboxylase of Shewanella oneidensis (S. oneidensis); test: SEC; gel filtration chromatography of the purified recombinant protein
[8] = target: MadB, standalone hot dog malonyl-ACP decarboxylase of Shewanella oneidensis (S. oneidensis); test: AUC; sedimentation analysis (methods: sedimentation velocity, 50,000 rpm, interference optics), 0.02 M Tris pH 7.5, 0.5 M NaCl, 20 °C, no reducing agents

Substance: MadB(N43A) (enzyme)
- stoichiometry N [1]: 2

Substance: MadB(H47A) (enzyme)
- stoichiometry N [2]: 2

Substance: MadB(D79A) (enzyme)
- stoichiometry N [3]: 2

Substance: MadB(N45A) (enzyme)
- stoichiometry N [4]: 2

Substance: MadB(S54A) (enzyme)
- stoichiometry N [5]: 2

Substance: MadB(T49A) (enzyme)
- stoichiometry N [6]: 2

Substance: MadB, standalone hot dog malonyl-ACP decarboxylase of Shewanella oneidensis (enzyme)
- stoichiometry N [7]: 2
- stoichiometry N [8]: 2
